Test results: patent publication US20250197496A1

Experiments:
[1] = molecular target: T1, human ULBP2 (26-216) P41A on yeast (human) (UniProt Q9BZM5); assay: yeast display FACS, 1 nM
T1 sequence: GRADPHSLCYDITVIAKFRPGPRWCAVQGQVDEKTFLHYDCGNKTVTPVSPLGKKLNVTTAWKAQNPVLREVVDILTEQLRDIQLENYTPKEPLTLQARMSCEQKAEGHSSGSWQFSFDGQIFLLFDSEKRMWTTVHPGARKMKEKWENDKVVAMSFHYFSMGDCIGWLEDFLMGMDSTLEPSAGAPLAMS

[2] = molecular target: Cynomolgus ULBP2 (26-216) fused to hIgG1 Fc (cynomolgus; human); assay: SPR, biotinylated antigen on SA chip
[3] = molecular target: cynomolgus ULBP2 (26-216) displayed on yeast (cynomolgus); assay: flow cytometry on yeast displaying ULBP2; unstained control 385
[4] = molecular target: T2, human ULBP2 (26-216) R44A on yeast (human) (UniProt Q9BZM5); assay: yeast display FACS, 1 nM
T2 sequence: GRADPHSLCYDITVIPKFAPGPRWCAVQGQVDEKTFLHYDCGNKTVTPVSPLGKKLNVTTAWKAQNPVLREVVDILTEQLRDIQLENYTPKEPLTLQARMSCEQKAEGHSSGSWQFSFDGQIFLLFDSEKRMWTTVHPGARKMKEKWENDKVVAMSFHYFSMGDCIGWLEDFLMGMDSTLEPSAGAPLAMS

Binder | Gate 1 Freq. of Total [1] | Gate 2 Freq. of Total [1] | Gate 3 Freq. of Total [1] | Kd [2] | koff [2] | kon [2] | MFI [3] | Gate 1 Freq. of Total [4] | Gate 2 Freq. of Total [4] | Gate 3 Freq. of Total [4]
E12 (antibody, V domains shown) VH: QVQLVQSGAEVKKPGASVKVSCKASGYTFTNYDINWVRQAPGQGLEWMGWIYPGDGSTYYNEKFKGRVTMTRDTSTSTVYMELSSLRSEDTAVYYCARSGDYGLYYFDYWGQGTLVTVSS VL: EIVLTQSPATLSLSPGERATLSCRASQSIGTSIHWYQQKPGQAPRLLIYFASESISGIPARFSGSGSGTDFTLTISSLEPEDFAVYYCQQSNSWPLYTFGGGTKVEIK | 0.098% | 0.41% | 4.73% | 0.534 nM | 0.00182 s⁻¹ | 3.41e+06 M⁻¹ s⁻¹ | 11700 | – | – | –
A06 (antibody, V domains shown) VH: EVQLVQSGAEVKKPGESLKISCKGSGYAFSTSWMNWVRQMPGKGLEWMGRIYPGDGDTNYNGNFKGQVTISADKSISTAYLQWSSLKASDTAMYYCARGGELRLEAMDSWGQGTLVTVSS VL: EIVMTQSPATLSLSPGERITLSCSASSSIHSNYLHWYQQKPGQAPRLLIYRTSNLASGIPARFSGSGSGTDFTLTISSLQPEDFAVYYCQQGFSIPFTFGQGTKLEIK | 0.052% | 0.32% | 2.61% | – | – | – | 551 | 0.19% | 0.8% | 1.58%
